Publication PMC1762332, “Catalases Are NAD(P)H-Dependent Tellurite Reductases” (PLoS ONE, 2006)

Legend:
[1] = biological target: the molecule itself; experiment: native gel or EMSA; purified bovine liver catalase on native 12% polyacrylamide gel, 40 mM Tris-glycine pH 8.3, 4°C; band compared with a 244 kDa standard; dismutase and tellurite reductase activities stained in situ
[2] = biological target: the molecule itself; experiment: native gel or EMSA; crude extracts of E. coli Top10 (pCAT) on native 12% polyacrylamide gel, 40 mM Tris-glycine pH 8.3, 4°C; catalase found by H2O2 dismutase and tellurite reductase activity staining in situ

B1: bovine liver catalase (enzyme, UniProt P00432 1-527, looked up)
chain: MADNRDPASDQMKHWKEQRAAQKPDVLTTGGGNPVGDKLNSLTVGPRGPLLVQDVVFTDEMAHFDRERIPERVVHAKGAGAFGYFEVTHDITRYSKAKVFEHIGKRTPIAVRFSTVAGESGSADTVRDPRGFAVKFYTEDGNWDLVGNNTPIFFIRDALLFPSFIHSQKRNPQTHLKDPDMVWDFWSLRPESLHQVSFLFSDRGIPDGHRHMNGYGSHTFKLVNANGEAVYCKFHYKTDQGIKNLSVEDAARLAHEDPDYGLRDLFNAIATGNYPSWTLYIQVMTFSEAEIFPFNPFDLTKVWPHGDYPLIPVGKLVLNRNPVNYFAEVEQLAFDPSNMPPGIEPSPDKMLQGRLFAYPDTHRHRLGPNYLQIPVNCPYRARVANYQRDGPMCMMDNQGGAPNYYPNSFSAPEHQPSALEHRTHFSGDVQRFNSANDDNVTQVRTFYLKVLNEEQRKRLCENIAGHLKDAQLFIQKKAVKNFSDVHPEYGSRIQALLDKYNEEKPKNAVHTYVQHGSHLSAREKANL
notes: catalase (EC 1.11.1.6) from bovine liver, commercial purified enzyme; the legend calls it a tetramer of 255 kDa; also called bovine catalase; catalase (C-9322); source: bought: Sigma (C-9322), purified
In the case of B1, the “stoichiometry N” value [1] is reported as 4.

B2: S. epidermidis CH catalase (product of the katA gene) expressed from plasmid pCAT (enzyme, Staphylococcus epidermidis CH, UniProt Q2PUJ9 1-504, looked up)
chain: MSKQDGKLTGLFGAPVSDRENSMTAGRRGPLLMQDVYYLEQISHFDREVIPERRMHAKGSGAFGTFTVTNDITQYTNAKIFSEVGKQTEMFARFSTVSGERGAADLERDIRGFALKFYTEDGNWDLVGNNTPVFFFRDPKLFISLNRAVKRDPRTNMRSAQNNWDFWTGLPEALHQVTILMSDRGMPKGFRNMHGFGSHTYSMYNDKGERVWVKYHFRTQQGIENYTDEEAAKIVGMDRDSSQRDLYNAIENGDYPKWKMYIQVMTEEQAKNHPDNPFDLTKVWYKKDYPLIEVGEFELNRNPENYFLDVEQAAFAPTNIVPGLDYSPDKMLQGRLFSYGDAQRYRLGVNHWQIPVNQPKGVGVENLCPFSRDGQMRFLDNNQGGGPHYYPNNQGIYESQPEHKKPPFPTDGDGYEYNYRQDDDNYFEQPGKLFRLQSEDAKERIFTNTANAMDGVSKDVKVRHIRHCYKADPEYGKGVAKALDIDINQIDLETNQDETYENFK
notes: catalase KatA of Staphylococcus epidermidis strain CH; The coding region was amplified with primers from the ATG to the stop codon; The 1,515 bp gene is deposited as GenBank DQ301862 and differs by 15 bp from its homolog SE1016 in strain ATCC12228; Cloned with the pBAD TOPO TA Expression Kit; also called S. epidermidis catalase; 60 kDa protein; source: E. coli Top10 carrying pCAT (pBAD vector), …
B2 was tested, and the “stoichiometry N” value [2] was 4.
